Laboratory results reported in the supplement of paper PMC9876800.

Test system: peptide library, one residue held at a place counted from the S/T acceptor
Assay: relative phosphorylation of the sub-library (ratio to the mean residue at this position); higher = residue favoured
How it was run: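 Relative sub-library phosphorylation, a ratio to the mean residue at that position, was obtained by phosphorimaging and densitometry of spots on streptavidin membranes. Before capture, purified recombinant kinases were incubated for 90 min under kinase-specific conditions with 50 μM biotinylated degenerate peptide sub-libraries and 50 μM ATP spiked with γ-32P-ATP. Each sub-library fixed one residue at one position around a central Ser/Thr.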

GRK4, construct: Full length, human, sequence (P32298 whole entry, looked up): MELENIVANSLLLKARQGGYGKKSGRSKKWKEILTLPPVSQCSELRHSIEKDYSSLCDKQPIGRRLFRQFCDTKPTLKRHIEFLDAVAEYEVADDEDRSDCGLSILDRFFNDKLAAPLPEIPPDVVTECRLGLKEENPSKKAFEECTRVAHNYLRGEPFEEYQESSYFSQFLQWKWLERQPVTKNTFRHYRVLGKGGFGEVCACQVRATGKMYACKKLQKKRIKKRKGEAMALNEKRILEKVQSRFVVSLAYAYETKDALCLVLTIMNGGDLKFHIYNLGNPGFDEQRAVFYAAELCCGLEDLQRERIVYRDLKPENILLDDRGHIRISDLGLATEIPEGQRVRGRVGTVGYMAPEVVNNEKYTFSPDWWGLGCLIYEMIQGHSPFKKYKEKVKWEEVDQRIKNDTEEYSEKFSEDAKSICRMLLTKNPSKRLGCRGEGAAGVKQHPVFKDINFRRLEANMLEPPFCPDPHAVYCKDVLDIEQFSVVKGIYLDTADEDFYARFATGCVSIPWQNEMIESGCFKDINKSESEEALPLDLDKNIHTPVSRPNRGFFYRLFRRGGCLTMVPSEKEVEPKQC

DYRK4, construct: Full length, human (from UniProt Q9NR20)
relative phosphorylation
Conditions | at +1 | at +2 | at +3 | at +4 | at -1 | at -2 | at -3 | at -4 | at -5
A fixed | 0.514 | 0.92 | 0.735 | 0.738 | 1.25 | 2.4 | 1.05 | 1.07 | 0.995
D fixed | 0.171 | 2.1 | 1.07 | 1.49 | 0.773 | 0.283 | 0.554 | 0.801 | 0.827
E fixed | 0.189 | 1.81 | 0.985 | 1.28 | 0.959 | 0.27 | 0.54 | 0.85 | 0.807
F fixed | 0.166 | 1.03 | 0.935 | 1.27 | 0.671 | 0.366 | 0.464 | 0.725 | 1.09
G fixed | 0.614 | 0.629 | 1.3 | 1.06 | 1.28 | 0.977 | 1.29 | 1.13 | 1.1
H fixed | 0.173 | 1.09 | 0.909 | 1.03 | 0.925 | 0.493 | 0.88 | 0.961 | 1.11
I fixed | 0.268 | 1.35 | 0.696 | 1.09 | 0.73 | 0.781 | 0.491 | 0.939 | 0.9
K fixed | 0.228 | 0.317 | 0.428 | 0.543 | 0.87 | 0.421 | 0.796 | 0.857 | 0.922
L fixed | 0.202 | 1.18 | 1.42 | 0.967 | 0.832 | 0.871 | 0.624 | 0.893 | 0.825
M fixed | 0.21 | 1.23 | 1.12 | 1.19 | 1.16 | 0.844 | 0.647 | 0.888 | 0.78
N fixed | 0.2 | 0.738 | 0.825 | 0.866 | 0.847 | 0.907 | 0.728 | 0.719 | 0.882
P fixed | 12 | 0.629 | 3.2 | 0.896 | 1.71 | 2.89 | 1.05 | 1.3 | 1.02
Q fixed | 0.266 | 0.783 | 0.882 | 0.958 | 0.962 | 0.629 | 0.805 | 0.916 | 1.04
R fixed | 0.93 | 0.367 | 0.554 | 0.672 | 1.41 | 3.18 | 5.51 | 2.49 | 1.98
V fixed | 0.578 | 1.07 | 0.637 | 0.87 | 0.963 | 1.02 | 0.478 | 0.731 | 0.792
W fixed | 0.163 | 0.909 | 0.726 | 1.16 | 0.595 | 0.321 | 0.533 | 0.875 | 0.656
Y fixed | 0.161 | 0.843 | 0.569 | 0.919 | 1.06 | 0.354 | 0.556 | 0.863 | 1.28
pThr fixed | 0.375 | 4.81 | 0.992 | 1.93 | 0.506 | 0.647 | 0.592 | 0.868 | 0.978
pTyr fixed | 0.365 | 3.13 | 1.37 | 2.35 | 1.04 | 0.383 | 0.698 | 0.896 | 1.44

GRK4, construct: Full length, human (from UniProt P32298)
relative phosphorylation
Conditions | at +1 | at +2 | at +3 | at +4 | at -1 | at -2 | at -3 | at -4 | at -5
A fixed | 0.613 | 1.5 | 0.747 | 0.859 | 0.654 | 0.895 | 0.863 | 0.994 | 1
D fixed | 0.683 | 1.24 | 1.53 | 1.65 | 1.57 | 2.39 | 1.88 | 1.75 | 1.83
E fixed | 1.41 | 0.872 | 1.57 | 1.51 | 1.2 | 1.95 | 1.88 | 1.69 | 1.48
F fixed | 1.52 | 1.23 | 1.51 | 1.17 | 0.998 | 0.992 | 0.902 | 0.854 | 0.992
G fixed | 0.577 | 0.879 | 0.953 | 0.928 | 0.619 | 0.983 | 0.927 | 0.965 | 1.02
H fixed | 0.879 | 0.954 | 0.99 | 0.911 | 1.92 | 0.855 | 0.911 | 0.897 | 0.991
I fixed | 1.57 | 1.54 | 0.741 | 0.779 | 0.637 | 0.649 | 0.697 | 0.752 | 0.695
K fixed | 0.455 | 0.414 | 0.432 | 0.614 | 0.492 | 0.547 | 0.612 | 0.778 | 0.89
L fixed | 1.01 | 0.356 | 0.763 | 0.777 | 0.882 | 0.619 | 0.745 | 0.835 | 0.796
M fixed | 1.44 | 0.717 | 0.918 | 0.894 | 0.792 | 0.681 | 0.858 | 0.874 | 0.794
N fixed | 0.674 | 0.753 | 0.685 | 0.906 | 1.28 | 1.18 | 1.03 | 1.05 | 0.954
P fixed | 0.249 | 0.522 | 0.928 | 1.3 | 0.607 | 0.77 | 1.2 | 0.977 | 0.892
Q fixed | 1.28 | 0.613 | 0.662 | 0.903 | 0.805 | 0.872 | 0.912 | 0.839 | 0.86
R fixed | 0.602 | 0.408 | 0.554 | 0.654 | 0.542 | 0.789 | 0.787 | 0.797 | 0.814
V fixed | 1.75 | 1.85 | 0.782 | 0.855 | 1.21 | 0.71 | 0.721 | 0.812 | 0.773
W fixed | 1.16 | 1.73 | 2.11 | 1.29 | 0.812 | 1.21 | 0.941 | 1.09 | 1.25
Y fixed | 1.12 | 1.43 | 1.12 | 1 | 1.97 | 0.903 | 1.13 | 1.05 | 0.975
pThr fixed | 1.45 | 0.994 | 1.12 | 2.32 | 0.656 | 3.34 | 3.2 | 1.75 | 1.4
pTyr fixed | 1.46 | 1.33 | 1.25 | 1.81 | 1.73 | 3.38 | 2.82 | 2.06 | 1.71
